Where no end group is shown, it is not given here. [ ]: non-standard residue; d: D form. Lys(Me3) = C[N+](C)(C)CCCC[C@H](N)C(=O)O
Target: EED (amino acids 40-441) (human, UniProt O75530-1 40-441)
Assay: FP

Sequence of EED (amino acids 40-441) (O75530 40-441): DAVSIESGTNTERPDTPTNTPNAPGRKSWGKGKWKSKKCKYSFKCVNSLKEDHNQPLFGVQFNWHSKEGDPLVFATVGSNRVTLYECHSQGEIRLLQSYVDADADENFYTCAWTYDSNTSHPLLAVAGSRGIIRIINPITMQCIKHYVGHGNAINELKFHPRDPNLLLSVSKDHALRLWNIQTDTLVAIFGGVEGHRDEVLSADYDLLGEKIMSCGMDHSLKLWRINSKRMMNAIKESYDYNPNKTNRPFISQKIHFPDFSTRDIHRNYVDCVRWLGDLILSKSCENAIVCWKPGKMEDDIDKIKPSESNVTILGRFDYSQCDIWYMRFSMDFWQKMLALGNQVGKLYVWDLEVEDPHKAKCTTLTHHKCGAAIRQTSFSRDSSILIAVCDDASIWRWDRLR

- Kd: 223 µM
Binder: LK[Lys(Me3)]APG [PALI1-K1241me3 peptide with the F1242A mutation]
